What was measured:
Conditions in all cases: remark: other sources report otherwise
[1] = molecular target: HLA-A*0201 on mild-acid treated JY cells (human)
[2] = molecular target: HLA-A*0201 on mild-acid treated JY cells (human); experiment: competition vs FL-reference peptide, JY cells
[3] = molecular target: HLA-A*0201 on mild-acid treated JY cells (human); experiment: competition vs FL-reference peptide, JY cells, 26°C 3 hr
[4] = molecular target: HLA-A*0201 on mild-acid treated JY cells (human); experiment: competition vs FL-reference peptide, JY cells, 26°C 24 hr
[5] = molecular target: HLA-A*0201 on mild-acid treated JY cells (human); experiment: competition vs FL-reference peptide, JY cells, 4°C 24 hr

Binder: PLEEELPRL [HBV Pol 594-602]
- HLA molecules detectable after 2 hr at 37°C (NS = non stable) [1]: < 10%

Binder: DLMGYIPLV [HCVcore-132]
- IC50 [2]: 5000 nM

Binder: FLPSDFFPSV [hepatitis B nucleocapsid peptide …]
- IC50 [2]: 400 nM

Binder: WLSLLVPFV [HBV surface 335]
- IC50 [2]: 1000 nM

Binder: TLGIVCPI [HPV16 E7 86-93]
- IC50 [3]: 6500 nM
- IC50 [4]: 3100 nM
- IC50 [2]: 700 nM
- IC50 [5]: 700 nM

Reference: patent US20070025968A1, “Methods for selecting and producing T cell peptide epitopes and vaccines incorporating said selected epitopes” (priority 1996, published 2007)
